Experiment [1] deals with T1, recombinant human CD122 (human, UniProt P14784 27-239, limits assumed).
T1 construct: also called IL-2Rβ
T1 sequence (looked up): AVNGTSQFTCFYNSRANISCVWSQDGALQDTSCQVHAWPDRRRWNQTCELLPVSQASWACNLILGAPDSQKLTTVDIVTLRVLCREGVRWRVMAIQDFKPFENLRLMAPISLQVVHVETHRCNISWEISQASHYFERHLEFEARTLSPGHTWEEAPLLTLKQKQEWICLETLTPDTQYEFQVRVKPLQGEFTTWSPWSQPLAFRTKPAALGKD
In words: ELISA, plate coated with 1 µg/mL recombinant human CD122. On the procedure: (§1) Plates were washed three times with PBST, added HRP labeled anti-human IgG secondary antibody and incubated at RT for 15 minutes, then washed 5 times with PBST. For color development, 100 μl of tetramethylbenzidine (TMB) chromogenic solution was added to each well, the reaction was quenched by 1 N HCl and absorbance at 450 nm was measured on a microplate reader. Binding signals were plotted against antibody concentration with GraphPad Prism 6.0 software and EC₅₀ values were calculated accordingly.
(An ELISA detects its analyte on a solid surface through an enzyme-linked reagent.)

Experiment [2] deals with T2, human CD122 on HEK293 cells (human, UniProt P14784 27-551).
T2 construct: whole, on cells; also called cell surface CD122
T2 sequence (looked up): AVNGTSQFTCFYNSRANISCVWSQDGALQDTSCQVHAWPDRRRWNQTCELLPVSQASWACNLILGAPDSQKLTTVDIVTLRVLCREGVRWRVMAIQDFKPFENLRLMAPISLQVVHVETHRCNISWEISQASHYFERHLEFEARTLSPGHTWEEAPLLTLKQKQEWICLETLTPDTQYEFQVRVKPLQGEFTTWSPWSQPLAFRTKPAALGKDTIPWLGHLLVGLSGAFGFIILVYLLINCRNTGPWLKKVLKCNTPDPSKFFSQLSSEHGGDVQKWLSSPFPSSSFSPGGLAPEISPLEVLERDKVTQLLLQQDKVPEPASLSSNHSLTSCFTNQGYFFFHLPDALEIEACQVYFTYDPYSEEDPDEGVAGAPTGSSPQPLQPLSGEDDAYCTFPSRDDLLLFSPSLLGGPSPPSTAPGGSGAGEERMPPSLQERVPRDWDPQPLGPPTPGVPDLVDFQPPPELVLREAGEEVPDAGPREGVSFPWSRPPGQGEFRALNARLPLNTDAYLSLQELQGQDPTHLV
In words: Flow cytometry (MFI) on HEK293 cells overexpressing human CD122; the table gives no unit, the axis is Fab conc.(nM). As to the method:
(§2) Briefly, a 96-well plate was seeded with 3×10⁵ cells each well, centrifuged at 400 g for 5 minutes and supernatants discarded, then added 100 μl of antibody (5× serial dilutions, 0.0064 to 100 nM) each well and gently mixed. After 60 minutes of incubation at 4° C., plates were washed several times to remove excess antibodies. Secondary fluorochrome-conjugated goat anti-human IgG antibody (Jackson Immunoresearch, Cat No. 109-606-098) was then added and incubated with cells at 4° C. for 20 minutes. After another round of centrifugation and washing, cells were resuspended in assay buffer (1X PBS containing 2% FBS) for reading on a flow-cytometer. Median Fluorescence Intensity (MFI) readouts were plotted against antibody concentration and analyzed with GraphPad Prism 6.0 software.
A general note: Flow cytometry measures light scatter and fluorescence of single cells or particles in a stream.

Experiment [3] concerns the target T3, recombinant human CD132 (human, UniProt P31785 23-262, limits assumed).
T3 construct: also called IL-2Rγ
T3 sequence (looked up): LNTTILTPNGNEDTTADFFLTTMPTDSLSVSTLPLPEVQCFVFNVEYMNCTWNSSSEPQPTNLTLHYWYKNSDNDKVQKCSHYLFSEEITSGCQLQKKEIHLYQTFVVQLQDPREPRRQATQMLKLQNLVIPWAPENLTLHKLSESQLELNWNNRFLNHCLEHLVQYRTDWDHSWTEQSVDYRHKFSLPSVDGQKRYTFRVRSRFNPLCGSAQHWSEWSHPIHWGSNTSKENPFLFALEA
In words: ELISA, plate coated with 1 µg/mL recombinant human CD132. On the procedure:
as §1

The target of experiment [4] is T4, human CD132 on HEK293 cells (human, UniProt P31785 23-369).
T4 construct: whole, on cells; also called cell surface CD132
T4 sequence (looked up): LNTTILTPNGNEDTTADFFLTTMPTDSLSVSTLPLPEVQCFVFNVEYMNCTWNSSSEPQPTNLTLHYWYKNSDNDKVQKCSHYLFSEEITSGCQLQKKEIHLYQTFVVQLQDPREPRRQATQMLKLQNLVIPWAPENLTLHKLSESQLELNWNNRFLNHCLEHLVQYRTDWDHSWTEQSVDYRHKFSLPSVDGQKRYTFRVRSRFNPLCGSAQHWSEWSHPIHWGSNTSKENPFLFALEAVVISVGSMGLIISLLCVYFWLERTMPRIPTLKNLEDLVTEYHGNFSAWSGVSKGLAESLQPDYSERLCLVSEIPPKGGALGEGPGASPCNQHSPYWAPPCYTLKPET
In words: Flow cytometry (MFI) on HEK293 cells overexpressing human CD132; the table gives no unit, the axis is Fab conc.(nM); the curve has no upper plateau in the range shown. On the procedure: as §2

Experiment [5] addresses T5, CD122/CD132 complex on HEK-Blue IL-2 cells (UniProt P14784 27-551; P31785 23-369, limits assumed).
T5 sequence (looked up) 1: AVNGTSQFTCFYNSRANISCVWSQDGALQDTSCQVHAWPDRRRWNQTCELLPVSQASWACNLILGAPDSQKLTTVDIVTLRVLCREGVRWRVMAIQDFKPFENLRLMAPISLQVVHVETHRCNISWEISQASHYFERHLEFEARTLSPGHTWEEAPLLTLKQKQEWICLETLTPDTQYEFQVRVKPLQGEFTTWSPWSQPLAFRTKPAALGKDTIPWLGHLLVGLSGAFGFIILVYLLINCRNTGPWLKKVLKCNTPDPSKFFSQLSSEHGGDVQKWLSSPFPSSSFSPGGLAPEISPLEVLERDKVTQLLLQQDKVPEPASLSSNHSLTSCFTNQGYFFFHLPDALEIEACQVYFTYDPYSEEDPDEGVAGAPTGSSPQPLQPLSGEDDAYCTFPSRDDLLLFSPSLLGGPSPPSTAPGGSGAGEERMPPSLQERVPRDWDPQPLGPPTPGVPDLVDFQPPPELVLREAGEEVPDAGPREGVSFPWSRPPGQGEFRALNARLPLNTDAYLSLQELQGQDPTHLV
T5 sequence (looked up) 2: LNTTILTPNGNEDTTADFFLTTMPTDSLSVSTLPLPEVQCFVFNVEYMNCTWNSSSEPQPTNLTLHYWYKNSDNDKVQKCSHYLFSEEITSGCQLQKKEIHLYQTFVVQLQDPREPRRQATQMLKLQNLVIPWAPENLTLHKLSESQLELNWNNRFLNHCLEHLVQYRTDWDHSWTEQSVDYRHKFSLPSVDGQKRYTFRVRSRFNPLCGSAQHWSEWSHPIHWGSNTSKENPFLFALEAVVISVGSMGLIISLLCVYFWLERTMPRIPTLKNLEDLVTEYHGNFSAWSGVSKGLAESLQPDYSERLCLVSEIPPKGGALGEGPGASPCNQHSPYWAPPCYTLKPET
In words: cell-based or functional assay.

For experiment [6], the target named is T3, recombinant human CD132. In words: hybridoma supernatant screening, method not described.
Experiment [7] deals with T1, recombinant human CD122. The experiment is described as above.

B1: FIT2019-86b (bispecific antibody, human IgG1, kappa, L234A L235A)
chain 1: not shown
chain 2: QVQLQQSGPELVKPGASVKMSCKASGYRFSDYVISWVKQRSGQGLEWIGEIYPGDGNTYYNEMFKGRATLTADKSPNTAYMKLSSLTSEDSALYFCARGSYTYDNYAMDFWGQGTSVTVSSASTKGPSVFPLAPSSKSTSGGTAALGCLVKDYFPEPVTVSWNSGALTSGVHTFPAVLQSSGLYSLSSVVTVPSSSLGTQTYICNVNHKPSNTKVDKKVEPKSC
chain 3: DIQMTQTPSSLSASLGDRVTISCRASQDISNYLNWYQQKPDGTVKLLIYYKSRLHSGVPSRFSGSGSGTEYSLTINNLEQEDFATYFCHQGHTIPFTFGSGTKLEIKRTVAAPSVFIFPPSDEQLKSGTASVVCLLNNFYPREAKVQWKVDNALQSGNSQESVTEQDSKDSTYSLSSTLTLSKADYEKHKVYACEVTHQGLSSPVTKSFNRGEC
notes: FIT-Ig with mouse V domains of CD122-mAb77 (outer Fab) and CD132-mAb17 (inner Fab), human constant domains; also called anti-CD122/CD132 FIT2019-86b
B1: the EC50 (as a rule, the concentration needed to bring the measured effect to its halfway point) in experiment [1] worked out at 0.324 nM; in experiment [2], 2.2 nM; in experiment [3], 0.662 nM; in experiment [4], 75.6 nM. In experiment [5], the “EC50 from SEAP reporter gene assay” value was determined as 0.125 nM.

B2: CD132-mAb17 (antibody, V domains shown)
VH: EVQLQQPGSELVRPGASVKLSCKASGYTFTSYWMHWMKQRPGQGLEWIGHIYLGGGATNYAEKFRSKATLTADTSSSTAYMQLSSLTSEDSAVYYCTRSQPYYYGMDSWGQGTSVTVSS
VL: DIQMTQTPSSLSASLGDRVTISCRASQDISNYLNWYQQKPDGTVKLLIYYKSRLHSGVPSRFSGSGSGTEYSLTINNLEQEDFATYFCHQGHTIPFTFGSGTKLEIK
notes: Mouse hybridoma antibody; also called clone #CD132-mAb17; mAb CD132-mAb17
As to B2, the binding result in experiment [6] is recorded as “binds”.

B3: CD122-mAb77 (antibody, V domains shown)
VH: QVQLQQSGPELVKPGASVKMSCKASGYRFSDYVISWVKQRSGQGLEWIGEIYPGDGNTYYNEMFKGRATLTADKSPNTAYMKLSSLTSEDSALYFCARGSYTYDNYAMDFWGQGTSVTVSS
VL: DVLMTQTPLSLPVSLGDQASISCRSSQNIVHSNGNTYLEWYLQKPGQSPKLLIYKVSNRFSGVPDRFSGSGSGTDFTLKISRVEAEDLGLYYCFQGSHIPWTFGGGTKLEIK
notes: Mouse hybridoma antibody; also called clone #CD122-mAb77
In the case of B3, the binding result in experiment [7] is given as “binds”.

The values are drawn from US20250002594A1 (SHANGHAI EPIMAB BIOTHERAPEUTICS, published 2025).
